Laboratory results published in patent US20060008891A1, “Cathepsin G-related peptides as modulators of formylpeptide receptors (FPR)” (The Government of USA as repersented by the Secretary, …, priority 2004, published 2006).
Where “and” joins values, the source holds several entries; their conditions need not be identical. Equal values may be shown once.

Key:
[1] = target: T1, FPR (Homo sapiens, UniProt P21462); assay: Chemotaxis assay, RBL cells transfected with FPR (ETFR cells); type: cell-based
T1 construct: expressed in transfected cells; host or cells: Rat basophilic leukemia (RBL) cells, stably transfected (ETFR cells); gift of H. Ali and R. Snyderman, Duke University
T1 sequence (P21462 1-350): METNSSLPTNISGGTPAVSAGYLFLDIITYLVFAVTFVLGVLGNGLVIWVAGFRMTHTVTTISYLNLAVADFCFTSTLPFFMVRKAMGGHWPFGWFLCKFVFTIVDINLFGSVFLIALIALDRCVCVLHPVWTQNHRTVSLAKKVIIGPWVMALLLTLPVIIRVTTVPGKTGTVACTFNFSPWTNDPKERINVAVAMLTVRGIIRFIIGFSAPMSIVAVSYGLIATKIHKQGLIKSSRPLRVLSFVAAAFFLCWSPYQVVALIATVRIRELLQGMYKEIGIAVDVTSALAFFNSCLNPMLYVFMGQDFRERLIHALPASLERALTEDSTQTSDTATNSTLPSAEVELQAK
Method: (§1) Human PBMC were isolated from leukopacks obtained through the courtesy of Transfusion Medicine Department, National Institutes of Health Clinical Center (Bethesda, Md.) by Ficoll-Hypaque density gradient centrifugation. Monocytes were purified from human PBMC by Percoll gradient to yield>90% pure preparations. […] H. Ali and R. Snyderman, Duke University (Durham, N.C.) and maintained in the presence of 0.8 mg/ml geneticin (G418, Life Technologies, Rockville, Md.) in DMEM supplemented with 10% FCS. B. Chemotaxis assay Migration of phagocytes and ETFR cells was assessed using a 48-well microchemotaxis chamber (Neuroprobe, Cabin John, Md.) as previously described (Hu et al. (2001) J Leukoc Biol 70 15512). Briefly, different concentrations of stimulants were placed in the wells of the lower compartment of the chamber, and 50 μl cells (1.5×10^6 cells/ml for monocyte and neutrophil, 1×10^6 ETFR cells/ml) were added to the wells of the upper compartment. The lower and upper compartments were separated by either a 5-μm (for monocyte) or a 10-μm pore size, collagen-coated (for ETFR cells) polycarbonate filter (Osmonics, Livermore, Calif.). After incubation at 37° C. in humidified air with 5% CO2 (60 min for neutrophils, 90 min for monocytes, 4.5 h for ETFR cells), the filter was removed and stained, and the cells migrating across the filter were counted with light microscopy. The results are presented as the mean number of cells (±SD) in three high power fields (HPFs). For analysis of cross-desensitization, cells were pretreated with indicated reagents for 1 h at 37° C. After thorough washing with cold medium (RPMI 1640, 1% BSA), the cells were resuspended and assayed. To measure the effect of various signaling inhibitors, unless otherwise indicated, the cells were pre-incubated at 37° C. for 60 min with the inhibitors, and were then added to the upper wells of the chemotaxis chamber.

[2] = test system: parental RBL cells; assay: Chemotaxis assay, parental RBL cells; type: cell-based, rat; settings: parental RBL cells without FPR
Method: as §1, with “The results are presented as the mean number of cells (±SD) in three high power fields (HPFs). For analysis of cross-desensitization, cells were pretreated with indicated reagents for 1 h at 37° C. After thorough washing with cold medium (RPMI 1640, 1% BSA), the cells were resuspended and assayed. To measure the effect of various signaling inhibitors, unless otherwise indicated, the cells were pre-incubated at 37° C. for 60 min with the inhibitors, and were then added to the upper wells of the chemotaxis chamber.” left out

[3] = target: T1, FPR; assay: FPR internalization (confocal microscopy), ETFR cells; type: cell-based; settings: 30 min 37° C.
Method: For detection of FPR internalization, ETFR cells were seeded on coverslips and cultured overnight in DMEM containing 10% FCS at 37° C. After pretreatment with medium or stimulants for 30 minutes at 37° C., the cells were fixed in 0.25% paraformaldehyde for 15 min at 4° C. The cells were then permeabilized with 0.2% Tween 20 for 30 min at 4° C., followed by incubation with a monoclonal anti-human FPR antibody or isotype matched IgG for 30 min at 4° C. After three washes with 0.1% Tween 20 in DPBS, a FITC-labeled rat anti-mouse antibody (PharMingen) was applied to the cells for 30 min at 4° C. The coverslips were covered with DAPI, then mounted with an anti-fade, water-based mounting medium and analyzed under a laser scanning Zeiss LSM410 fluorescence confocal microscope.

[4] = test system: p38 MAPK; assay: Phosphorylation of p38 MAPK in ETFR cells (Western blot); type: cell-based, rat
Method: ETFR cells were plated in Petri dishes and cultured in DMEM at 37° C. in humidified 5% CO2 atmosphere for 48 h. After further culture in serum-free DMEM overnight, the cells were treated with stimulants for indicated time periods. The reaction was stopped by adding 1 ml ice-cold PBS, and the cells were lysed in 1×SDS lysis buffer (62.5 mM Tris-HCl, 2% w/v SDS, 10% glycerol, 50 mM DTT, pH 6.8) and harvested into tubes for sonication. Proteins (50 μg for each sample) were resolved by SDS-PAGE and transferred onto nitrocellulose membranes (Bio-Rad, Hercules, Calif.). The membranes were blocked for 2 h at room temperature in 3% non-fat milk prepared in Tris-buffered saline-T (10 mM Tris-HCl, pH 7.5, 150 mM NaCl, 0.1% Tween 20) and probed with anti-p-ERK1/2, p-p38 MAPK, or p-Akt (1:1000) at room temperature for 1-2 h or at 4° C. overnight. The membranes were then washed and incubated with horseradish peroxidase-conjugated secondary antibodies diluted in Tris-buffered saline-T for 1 h at room temperature. The immune complexes on the membranes were visualized using ECL reagents. Total ERK1/2, p38 MAPK, and Akt were visualized by stripping the same membrane and probing with antibodies against total ERK1/2, p38 MAPK, and Akt.

[5] = test system: ERK1/2; assay: Phosphorylation of ERK1/2 in parental RBL cells; type: cell-based, rat

- concentration range potently chemotactic ([1]; ETFR cells): 4 to 400 nM
- optimal concentration to induce ETFR cell migration ([1]; ETFR cells): 5 µg/mL
- concentration required to elicit optimal cell migration ([1]; FPR-expressing cells, cell type not specified): 5-10 μg/ml and 200-400 nM
Substance: CaG: Cathepsin G, serine protease purified from neutrophil granules, purchased from Athens Research & Technology
- chemotactic response of ETFR cells ([1]; ETFR cells): marked and dose-dependent chemotactic response
- migration of parental RBL cells [2]: Neither CaG nor fMLF induced migration of parental RBL cells
- FPR internalization [3]: significantly and dose-dependently induced FPR internalization
- time to activation of p38 MAPK [4]: 1 to 5 min
- phosphorylation of ERK1/2 in parental RBL cells [5]: did not show any increased phosphorylation of ERK1/2
